Data published in doi:10.1101/2024.01.05.574393.

B1: FLNCd24 (domain 24 of filamin C, residues 2630-2724), wild type (domain or fragment)
chain: GSKFSSDASKVVTRGPGLSQAFVGQKNSFTVDCSKAGTNMMMVGVHGPKTPCEEVYVKHMGNRVYNVTYTVKEKGDYILIVKWGDESVPGSPFKVKV
B2: FLNCd24 Y2683E (phospho-mimic, residues 2630-2724) (domain or fragment)
chain: GSKFSSDASKVVTRGPGLSQAFVGQKNSFTVDCSKAGTNMMMVGVHGPKTPCEEVEVKHMGNRVYNVTYTVKEKGDYILIVKWGDESVPGSPFKVKV
B3: FLNCd24 T2677D (phospho-mimic, residues 2630-2724) (domain or fragment)
chain: GSKFSSDASKVVTRGPGLSQAFVGQKNSFTVDCSKAGTNMMMVGVHGPKDPCEEVYVKHMGNRVYNVTYTVKEKGDYILIVKWGDESVPGSPFKVKV

These binders were tested against HSPB7ACD (α-crystallin domain, residues 78-162 of isoform 2) (human) (assay: native MS).
In the case of B1, the Kd is reported as 3.9 nM. Binder B2 has a Kd of 2.2 nM. For B3, the Kd was 14.1 nM.
